Consider 55 substances from the supplement of paper PMC11875167.

The nature of this series: observed amide hydrogen exchange rate constant kobs (stretched exponential fit, FD-normalized) (s^-1); higher = faster H/D exchange (less protection). Conditions: pH 3 (pH read); temperature: 20 °C; D2O: 88%. An outline of the steps: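 Uptake curves were fitted to a stretched single exponential with β = 0.8, and kobs, the observed exchange rate constant, is the fitted rate. The data came from Jurkat tryptic peptides (LysC/trypsin, carbamidomethylated cysteines) labeled in 88% D2O at pHread 3, 20 °C, then quenched with 0.23% formic acid at 13 times from 18 to 93,600 s in processing triplicates. MS1 uptake from a Q-Exactive HF, analyzed in HDExaminer with no back-exchange correction, was normalized to full-deuteration controls (24 h, 37 °C).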
HIADLAGNSEVILPVPAFNVINGGSHAGNK: the “observed amide hydrogen exchange rate constant kobs” value turned out to be 0.00138.

Consider SLEGDLEDLK, for which the “observed amide hydrogen exchange rate constant kobs” value stood at 0.00103.

As to RGLEVNK, the “observed amide hydrogen exchange rate constant kobs” value worked out at 0.00164.

Regarding ALPFWNEEIVPQIK, the “observed amide hydrogen exchange rate constant kobs” value was 0.000814.

For the substance HYGGLTGLNK, the “observed amide hydrogen exchange rate constant kobs” value stood at 0.00221.

With ESKDPADETEAD, the “observed amide hydrogen exchange rate constant kobs” value came to 0.00321.

For the substance TLAQLNPESSLFIIASK, the “observed amide hydrogen exchange rate constant kobs” value was found to be 0.00061.

As to QITVNDLPVGR, the “observed amide hydrogen exchange rate constant kobs” value is 0.000932.

For the substance LVINGNPITIFQERDPSK, the “observed amide hydrogen exchange rate constant kobs” value was determined as 0.000923.

On to PVHHGVNQLK, for which the “observed amide hydrogen exchange rate constant kobs” value is 0.00235.

In the case of SQIHDIVLVGGSTR, the “observed amide hydrogen exchange rate constant kobs” value amounted to 0.00136.

Regarding EVSTYIK, the “observed amide hydrogen exchange rate constant kobs” value amounted to 0.000877.

Take RVLIAAHGNSLR: the “observed amide hydrogen exchange rate constant kobs” value was found to be 0.00149.

As for HQPTAIIAK, the “observed amide hydrogen exchange rate constant kobs” value came to 0.00045.

With ILEFFGLK, the “observed amide hydrogen exchange rate constant kobs” value was 0.00112.

Turning to YAISMAR, the “observed amide hydrogen exchange rate constant kobs” value was 0.00127.

For the substance GILAADESTGSIAK, the “observed amide hydrogen exchange rate constant kobs” value amounted to 0.00166.

With RNTTIPTK, the “observed amide hydrogen exchange rate constant kobs” value was 0.00112.

As for GGGQIIPTAR, the “observed amide hydrogen exchange rate constant kobs” value worked out at 0.000898.

For GYISPYFINTSK, the “observed amide hydrogen exchange rate constant kobs” value is 0.000598.

Consider GTGIVSAPVPK, for which the “observed amide hydrogen exchange rate constant kobs” value was 0.00104.

For the substance GTLDPVEK, the “observed amide hydrogen exchange rate constant kobs” value was found to be 0.00116.

As to IKGEHPGLSIGDVAK, the “observed amide hydrogen exchange rate constant kobs” value turned out to be 0.00174.

As to LEEDINSSMTNSTAASRPPVTLR, the “observed amide hydrogen exchange rate constant kobs” value worked out at 0.00139.

Take GPSSVEDIK: the “observed amide hydrogen exchange rate constant kobs” value is 0.00156.

As to MLVSGAGDIK, the “observed amide hydrogen exchange rate constant kobs” value amounted to 0.00135.

For the substance EDAANNYAR, the “observed amide hydrogen exchange rate constant kobs” value was determined as 0.0026.

With FSHEEIAMATVTALRR, the “observed amide hydrogen exchange rate constant kobs” value was 0.000978.

As for IMATPEQVGK, the “observed amide hydrogen exchange rate constant kobs” value amounted to 0.000917.

For AVLVDLEPGTMDSVR, the “observed amide hydrogen exchange rate constant kobs” value worked out at 0.00126.

On to ATISNDGATILK, for which the “observed amide hydrogen exchange rate constant kobs” value came out at 0.00117.

For IDEPLEGSEDR, the “observed amide hydrogen exchange rate constant kobs” value came out at 0.00298.

For the substance YAFVNWINK, the “observed amide hydrogen exchange rate constant kobs” value was 0.00131.

Take TVHAGEVGSAEVVK: the “observed amide hydrogen exchange rate constant kobs” value was determined as 0.00152.

In the case of EIAEAYLGK, the “observed amide hydrogen exchange rate constant kobs” value was 0.00148.

Consider IITLTGPTNAIFK, for which the “observed amide hydrogen exchange rate constant kobs” value came out at 0.000716.

Take ALAAFLK: the “observed amide hydrogen exchange rate constant kobs” value stood at 0.000792.

In the case of ALELTGLK, the “observed amide hydrogen exchange rate constant kobs” value turned out to be 0.00115.

In the case of PLRLPLQDVYK, the “observed amide hydrogen exchange rate constant kobs” value stood at 0.000685.

RAAEDDEDDDVDTKK: the “observed amide hydrogen exchange rate constant kobs” value stood at 0.0039.

Take FLILPDMLK: the “observed amide hydrogen exchange rate constant kobs” value was 0.000536.

Turning to DNSTMGYMMAK, the “observed amide hydrogen exchange rate constant kobs” value was 0.00115.

Consider IHPVSTMVK, for which the “observed amide hydrogen exchange rate constant kobs” value was found to be 0.000804.

As to ISVYYNEATGGK, the “observed amide hydrogen exchange rate constant kobs” value was 0.00138.

As for GYDVIAQAQSGTGK, the “observed amide hydrogen exchange rate constant kobs” value amounted to 0.00126.

Turning to VVVSGLPPSGSWQDLK, the “observed amide hydrogen exchange rate constant kobs” value is 0.000996.

For the substance VESQLIGK, the “observed amide hydrogen exchange rate constant kobs” value was 0.00139.

As to FDLMYAK, the “observed amide hydrogen exchange rate constant kobs” value amounted to 0.000933.

On to DYFGAHTYELLAK, for which the “observed amide hydrogen exchange rate constant kobs” value was 0.00186.

For FAQPGSFEYEYAMR, the “observed amide hydrogen exchange rate constant kobs” value amounted to 0.00134.

For the substance LRQPFFQK, the “observed amide hydrogen exchange rate constant kobs” value worked out at 0.00093.

Consider SADTLWDIQK, for which the “observed amide hydrogen exchange rate constant kobs” value turned out to be 0.000935.

As for SSTPEEVK, the “observed amide hydrogen exchange rate constant kobs” value stood at 0.00152.

Regarding LQAVEVVITHLAPGTK, the “observed amide hydrogen exchange rate constant kobs” value stood at 0.000819.

In the case of AQVARPGGDTIFGK, the “observed amide hydrogen exchange rate constant kobs” value is 0.00115.
